Measured values taken from patent US20260097076A1 (ELPIS BIOPHARMACEUTICALS, published 2026).

Legend:
[1] = molecular target: T1, Transmembrane activator and CAML interactor (TACI) on cells (UniProt O14836 1-293, limits assumed); assay: flow cytometry on RPMI8226 cells (endogenous TACI)
T1 construct: whole, on cells; also called tumor necrosis factor receptor superfamily member 13B (TNFRSF13B)
T1 sequence (looked up): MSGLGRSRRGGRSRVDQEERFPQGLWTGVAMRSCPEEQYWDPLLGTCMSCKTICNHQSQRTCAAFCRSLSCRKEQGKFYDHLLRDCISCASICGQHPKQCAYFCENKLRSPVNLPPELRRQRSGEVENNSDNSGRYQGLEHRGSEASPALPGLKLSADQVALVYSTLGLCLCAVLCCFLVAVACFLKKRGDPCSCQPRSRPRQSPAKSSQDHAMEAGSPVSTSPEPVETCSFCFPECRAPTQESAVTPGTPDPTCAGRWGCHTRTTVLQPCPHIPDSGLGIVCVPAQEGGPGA
Description: (§1) Cells were spun down at 1200 rpm for 6 minutes at 4° C. to remove primary antibodies. Cells were then washed once with 200 μL of full medium per well. Samples were detected with premixed anti-His Biotin Streptavidin Alexa fluor 647 by adding 100 μL of diluted secondary antibody and incubated at 4° C. for 30 minutes in the dark. Samples were spun down at 1200 rpm for 5 minutes at 4° C. and washed twice with 200 μL of 1×PBS per well. Reconstituted samples in 200 μL of 1×PBS and read on Attune NxT cytometer. Analysis was done by Attune NxT software plotting the overlaying the histogram of anti-BCMA scFvs binding onto both negative and target cell lines. […] The BCMA cell binding affinity for exemplary anti-BCMA antibodies (in scFv format) was also generated with serial diluted scFvs as described above.
(§2) Anti-TACI scFv binders have been identified through Anti-TACI supernatant FACS screening assay with JVM2, MM1.R and RPMI8226 cell lines as described in above supernatant FACS screening assay. 200 nM of purified scFvs were subjected into FACS binding assay with TACI negative cell lines K562, H929 and TACI expressing cancer cell lines of JVM2, MM1.R, RPMI8226. The assay procedure and data analysis were described in Example 1 above.

[2] = molecular target: T1, Transmembrane activator and CAML …; assay: flow cytometry on JVM2 cells (endogenous TACI)
Description: as §1, §2

[3] = molecular target: T1, Transmembrane activator and CAML …; assay: flow cytometry on MM1S cells (endogenous TACI)
soluble recombinant TACI = molecular target: T2, soluble recombinant TACI (UniProt O14836 1-165, limits assumed); assay: ELISA, recombinant TACI immobilized on 384 well plate
T2 construct: Immobilized on a 384 well plate; construct not described
T2 sequence (looked up): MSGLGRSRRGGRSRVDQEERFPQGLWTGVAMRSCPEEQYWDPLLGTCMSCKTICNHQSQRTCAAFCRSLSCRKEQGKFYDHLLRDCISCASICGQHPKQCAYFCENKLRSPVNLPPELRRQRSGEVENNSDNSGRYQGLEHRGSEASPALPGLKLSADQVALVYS
Description: Purified anti-TACI scFvs were subjected to ELISA binding assay. Recombinant TACI and negative protein were immobilized on the 384 well plate. 200 nM of anti-TACI scFv clones were serial diluted and tested for binding in the assay as described above.

[4] = molecular target: T1, Transmembrane activator and CAML …; assay: flow cytometry on MM1R cells (endogenous TACI)
Description: as §1, §2

- EC50 [1]: 830 nM
- EC50 [2]: 26.8 nM
- EC50 [3]: 46.7 nM
- EC50 [4]: 14 nM
B1: TC-03 (anti-TACI antibody in scFv format) (scFv, not shown: small tags and cut ends)
scFv: EVQLVESGGGLVQPGGSLRLSCATSGFTVNSDYMSWVRQSPEKGLEWVSFIYRGGSTYYADSVKGRFTVSRDTSKNTLYLQMNSLRVEDTAVYYCARGLGSSSDYWGQGTLVTVSSGGGGSGGGGSGGGGSSYELTQPHSVSESPGKTVTISCTRSSGSIANNYVQWYRHRPGSAPSTVIFEDDHRPSEVPDRFSGSIDSSSNSASLTISGLKTEDEADYYCQSYDGIDHYVFGTGTKLTVL
notes: Human scFv from mRNA display (live cell selections), VH-(G4S)3-VL
- binding result (soluble recombinant TACI): no binding (tested: 200 nM, serial diluted)
